This note sets out measurements from publication PMC9817140.

This data set addresses T1, RpoN (sigma-54) (Vibrio parahaemolyticus RIMD2210633) (UniProt Q87LE2).
T1 sequence: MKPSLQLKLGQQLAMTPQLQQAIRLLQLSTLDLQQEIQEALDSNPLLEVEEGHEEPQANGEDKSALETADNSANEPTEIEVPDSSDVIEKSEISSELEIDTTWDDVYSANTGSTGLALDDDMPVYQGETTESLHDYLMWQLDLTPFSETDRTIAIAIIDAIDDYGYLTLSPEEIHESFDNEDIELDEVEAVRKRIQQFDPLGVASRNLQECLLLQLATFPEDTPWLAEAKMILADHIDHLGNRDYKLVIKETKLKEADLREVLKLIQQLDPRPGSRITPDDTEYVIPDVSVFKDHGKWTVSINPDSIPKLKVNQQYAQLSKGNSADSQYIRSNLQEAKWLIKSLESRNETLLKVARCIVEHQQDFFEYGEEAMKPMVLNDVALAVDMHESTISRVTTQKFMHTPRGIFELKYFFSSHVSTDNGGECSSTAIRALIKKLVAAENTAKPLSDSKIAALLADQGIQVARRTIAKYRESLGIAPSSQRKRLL
Briefly: EMSA. The conditions noted are these: EMSA: 20 µl with 10 ng FAM probe, 4 µl EMSA buffer (10 mM NaCl, 0.1 mM DTT, 0.1 mM EDTA, 10 mM Tris pH 7.4), 1 µl poly-dIdC, 25 °C 0.5 h, 6% native PAGE. (In EMSA bound probe runs differently from free probe, usually more slowly.)

Turning to “TGCCTGCAGGTCGACGATTTAATCAACACGTCACATTCCTAAAATGAATTAAATATTTTCAGCTTTTTAGTCGCCTTGTCTTATAGGGAAACACTAGATGTTTTCGAGAGGAAGGCGGAACACATAAGGTGGAAAATACACTTCCTCTCAAATTTAAATAGTATCGCAAGTCAATGTTTTAAAAGAATATTCAAGTTAGGCACGTATCTTGCGATAAGACATACTTTCAAGGCATAGAGTTACGCCAATTACCAATGAGAGAGGGAGTAAGCTC (double strand) [lafB promoter]”, the binding entry is “no binding”. Consider “TGCCTGCAGGTCGACGATGAGCTGCTGATATGCTGGGTATGCGCCGTACAACGTTGGTTGAGAAAATGCGCAAGTATAATTTGCAGCGTTAGATCGAGCTTCAGTTCAATCACAAAAGTTATCTTTTCTGACATTAAAATCAGACATTTCTCGGTGTCAACTTATTGTCGATAACATAACGTCATGATAAATATAAAAATAGCTTGGTACGCTAATTGCTTACCAAGCTATTTTACTTTTTAGTGGCGATATTTCGACAGGCAGTGA (double strand) [flaL promoter]”, for which the binding result was “no binding”.

On to “TGCCTGCAGGTCGACGATGTGGAATGTAATGGCCGACGCAAAGAAATGGCAGAGAAGTTGGGCATAAGCCCGCGTACTCTGCGCTACAAACTTGCCAAAATGCGTGACGCGGGTATAGATATTCCGAGTTAGGTTTCACACGCGTAGCCATAAGACAAAAGTGTGAGTAAACTATACAGCTGGCGTCTTGTCAATAATTAGTTTAAATAGATAGTCAAACTTTTGGCTCAGAGGTGATA (double strand) [ΔfliE promoter (RpoN site deleted)]”, for which the binding entry is “no binding”. With “GTGCCTTGTCAAAAGATATAGCCATGTTTGCCTCTACAATTAAGAACTGACCGTTATTAATAACTAAAAAACCGGAAACGCTAAAACACCTATCAGCTATTGACGTTTTAGATTGCAATAAGCAAGCCAAAGTAACTGGAATGTCGTATCACTTCGCTTACTTGAATAAAGATACACCCTGCAGAGGGAGCAGGGCAAAGTCCGACAACAGATTAGCGAGGGGAAACTCGAAATCTCATCTCATATAGACAAAATCGTCGACCTGCAGGCA (double strand) [ΔflgB promoter (RpoN site deleted)]” the entry was “no binding”. Under “TGCCTGCAGGTCGACGATTTTTGGACTCAACGTAACATTTTTCAATTTTGCCTCTCGTCACATCGCGTGAGTATCGAGTACAAAAATAAAATTTAATGTTCACCACATCCTTGTCGCCTATTGGATTTAGAACATGATGATGAGGACCACAGC (double strand) [flgM promoter]” stands “no binding”. As for “TGCCTGCAGGTCGACGATCTGCAAGTGAAGCAGAAAATCGAAAGTATGTGACCTTTTGGGGTTGCCGCGTACGCGAATCATTGAGGCTTGCCATCGTGCAAGCCTTTATTTTACCTGAATTTACTACTCTAAATCCCACTTGGCACATCTTTTGCTTTTACTTGTCTAGGTGATCGGTATTTACCGATCTTATTTCGTTTTTGGGGGCAGGTATGGCGTCAGATCTTCTG (double strand) [flgK promoter]”, the binding result is on record as “no binding”.

Turning to “TGCCTGCAGGTCGACGATTCTGTAAATAATAATTGAGAGTTGCTTCATAATAACTATTATTAGTTATAAATATCGCTTAATTTAAATCTAATTTAAAGATATAAAGGAGCGTATTTAAAATGAAGTTTTTGATACATCAATCATTAATTATCATTATTCAGATAATTTAATTAATACGAAATATGTCAATTAATAATGCTCTAGGAGATTAGC (double strand) [hcp2 promoter]”, the binding result is on record as “binds”. With “TGCCTGCAGGTCGACGATTCTCTTTGCCTTAATCTTATGCCGATCAAAGCACATCGGAAACTAACGCTAAAACGGTAGCAAACCCCAACTTAGTGGAATGCAAGTCACTAAAAATCATCAATTTTGATCTTTTTTAGAAAATTTTTAATTTTCAAATTAATCATTAGTGGCAAGCGACCGCCTCTAGTTAGTGACTAGGGAATATCCCAAGGCCTGAAAGAAATAGTGATAAACTAAGGAGACTAAG (double strand) [lafA promoter]” the entry was “binds”; with “TGCCTGCAGGTCGACGATGTCCTGTCGAAAGAATTCCTAATAACAGTATCCACTTTGAGGAAATTAGAGTTTTCCCCCTAATTTTTTTGCTTTCCGTAAACCGGAAGTTTGGTTTCCACTCTTGTTTGTAAGTCATTGATAAATATAAATAAAATTTATGGCACGTATCTTGTTTGTATCTTGGCGTATTCGAGCCGACTGTAAGGAAAGATGCATGGCGATCACATTTGAAAATGCTTTAGGTGTACATCCAG (double strand) [flgB2 promoter]”, “binds”; with “TGCCTGCAGGTCGACGATCGCCGGAACATCGTCATTAATCGTACAAAAAGCAAAATTAAGAAAAATATAAAACAATCAATGGATTGTGCTGTTATTTAGCTTTGAGTCATTATTTTGGCGTTGATTTTGGTACATAGATTGCTTAAGTCGACTAATTATCAACTATACCTAAACTTTTAGGCGAAAGTGGTCGCGTATAAACATTAGACATACGTATTAAAGTGCGTATTCGCGTGACGCTTCAATTCGATTGAGATACCTCGCAGT (double strand) [flhA promoter]”, “no binding”.

As for “TGCCTGCAGGTCGACGATCTTGGCTTGATAACATCATGACATTCATCTGATGCTTAGCCTGAAAACACCTCAGTTCAGGCTAAGCATGCTTTGATCTCTGGTTTGCCGCTGTTGCCGCCACATGGATCAAAATCTTGCCTCCCTTTGCAGTTTTTTTTCATTGAATATCCTTCTTGATTGCCTTTAATCTCATTCAAGTTTTTGATAAATAAGTTTATTTTTATTTTGGCATAACTATTGCTTTTACTCCGGAAGTACAGAGACTTTTTTGGAGTAA (double strand) [flgF promoter]”, the binding entry is “no binding”. Take “TTTTGGACCATCCGTCAGTAAATCAAACCCTTCTGGATGTATCAACTGCAGCGGTAACACTTGCGCCAATTGCGCCAATTTTTGCCCAGATTGACCGCCTATTTTAACCTCTGTCGAGCCATCGCGCTGCTTATTAATGCCGATAGGTAGCTCAAATTGATCCGAGTTCAAAAAACGACCATGAACAAACAGTTCATCACACTCATTTTGAATCACACGACCAGTGAGAGAGCTTTTGAATGAGCGACCATGCCCGAGTAAATAAATCGCTTCTAGGACAATCGTCGACCTGCAGGCA (double strand) [gyrB promoter]”: the binding result is on record as “no binding”. As to “TGCCTGCAGGTCGACGATATCTTAATTCGCACCACTTTAGTGCAGACGTAGATCATTTTGGTGCAATCATTTGCACCAAACTAGCATCTAAAAACACAATTCATTGAAATTAATGGAATATTTTTTTTGGCACGGTTTTGGCTTTAGTAAACACAGCATCGATTAATGAAAAGTCAAAAAGATTAATCAATGCCGGGTTCATGAATATTTCATAAGTCGAGCTTTTACCGCTTATTAACACTGGAGGTTATCCAAG (double strand) [VP0121 promoter]”, the binding entry was “binds”. As for “TGCCTGCAGGTCGACGATGATATTTTATTGGCATGACATTTGCTATTTGTTGCTCAATACTAATCTGGTTGAAGTTAGCACGGACGCACTGCGTAGTATTCATCGCCTATAGATGGCGGAATAAGAATGCTCATTGATAAGTTAATCAGCAGAATCTCCGGCGCTAACTACACTAAGAGATGGAAAAGACTATCCATGTTCATAAATGGAATTGAGC (double strand) [VP1510 promoter]”, the binding result is “no binding”. Turning to “TGCCTGCAGGTCGACGATCCTTGTTTTATCCCATGGTCAGCGGGCGCGAAGGCGGCACCGGACTTGGGTTGTCCATCTCACAAAATTTGATCGACCAGCACAACGGAAAAATCGACGTTGAAAGCTGGCCTGGCCACACCACTTTTACAATTTATTTGCCGATTTGACCTCACGAATGGATTTCGTTGAGCGCCAATTTACGGTTTTTGCTGCAAGGATTAGTAC (double strand) [VP0118 promoter]”, the binding result is recorded as “no binding”. “TGCCTGCAGGTCGACGATGTGGAATGTAATGGCCGACGCAAAGAAATGGCAGAGAAGTTGGGCATAAGCCCGCGTACTCTGCGCTACAAACTTGCCAAAATGCGTGACGCGGGTATAGATATTCCGAGTTAGGTTTCACACGCGTAGCCATAAGACAAAAGTGTGAGTAAACTATACAGCTGGCGTCTTATGGCACATAAATTGCTGTGTCAATAATTAGTTTAAATAGATAGTCAAACTTTTGGCTCAGAGGTGATA (double strand) [fliE promoter]”: the binding result was “binds”.
